14 molecules from US20200024322A1 (Eli Lilly, published 2020) can be followed below.

Residue numbers refer to the chain shown, from its start. Numbered stars: 1 amine (or outer) side, 2 acyl side, 3 side chain; on linkers, the order of the positions; unused ones are H or OH. Square brackets hold non-standard residues; d marks the D form. Side chains are listed from the residue outwards. Ends that are not written are not given here. * marks the point of attachment. C18 diacid = O=C(O)CCCCCCCCCCCCCCCCC(=O)*; γGlu = O=C(O)[C@H](CCC(=O)[*:2])N[*:1]; AEEA = NCCOCCOCC(=O)O; Aib = CC(C)(N)C(=O)O

First the molecules themselves.
T1: human GIP receptor (human, UniProt P48546 22-466)
T1 construct: whole, on cells; also called hGIPR; hGIP-R
T1 sequence (looked up): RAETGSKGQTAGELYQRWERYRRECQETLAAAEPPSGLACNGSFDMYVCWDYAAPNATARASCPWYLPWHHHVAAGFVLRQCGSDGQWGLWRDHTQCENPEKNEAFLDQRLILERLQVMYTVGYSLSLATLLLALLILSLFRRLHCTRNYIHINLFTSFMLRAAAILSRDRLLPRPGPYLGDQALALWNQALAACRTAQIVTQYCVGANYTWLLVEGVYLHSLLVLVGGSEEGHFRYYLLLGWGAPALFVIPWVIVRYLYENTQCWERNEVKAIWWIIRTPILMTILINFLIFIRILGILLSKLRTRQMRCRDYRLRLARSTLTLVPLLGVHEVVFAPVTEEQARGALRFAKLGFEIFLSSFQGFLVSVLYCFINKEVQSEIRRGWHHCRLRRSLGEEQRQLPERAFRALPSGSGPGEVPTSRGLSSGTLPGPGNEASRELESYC

B1: Example 232 (peptide)
peptide: YXEGTXTSDXSIXLDXKAQXEFIXYLIEGGPSSGAPPPS
modifications: Aib2; αMeF(2F)6; 4Pal10; αMeL13; Orn16; K17((2-[2-(2-Amino-ethoxy)-ethoxy]-acetyl)2-(γ-Glu)-CO-(CH2)16-CO2H); Aib20; D-Glu24; C-terminal NH2
B2: Example 235 (peptide)
peptide: B1 peptide
modifications: Aib2; αMeF6; 4Pal10; αMeL13; Dab16; K17((2-[2-(2-Amino-ethoxy)-ethoxy]-acetyl)2-(γ-Glu)-CO-(CH2)16-CO2H); Aib20; D-Glu24; C-terminal NH2
B3: Example 249 (peptide)
peptide: B1 peptide with X10Y
modifications: Aib2; αMeF(2F)6; Nle13; Orn16; K17((2-[2-(2-Amino-ethoxy)-ethoxy]-acetyl)2-(γ-Glu)-CO-(CH2)16-CO2H); Aib20; D-Glu24; C-terminal NH2
B4: Example 233 (peptide)
peptide: B1 peptide
modifications: Aib2; αMeF(2F)6; 4Pal10; αMeL13; Dab16; K17((2-[2-(2-Amino-ethoxy)-ethoxy]-acetyl)2-(γ-Glu)-CO-(CH2)16-CO2H); Aib20; D-Glu24; C-terminal NH2
B5: Example 248 (peptide)
peptide: B1 peptide with X10Y, X13L
modifications: Aib2; αMeF(2F)6; Orn16; K17((2-[2-(2-Amino-ethoxy)-ethoxy]-acetyl)2-(γ-Glu)-CO-(CH2)16-CO2H); Aib20; D-Glu24; C-terminal NH2
B6: Example 234 (peptide)
peptide: B1 peptide with X13L
modifications: Aib2; αMeF(2F)6; 4Pal10; Dab16; K17((2-[2-(2-Amino-ethoxy)-ethoxy]-acetyl)2-(γ-Glu)-CO-(CH2)16-CO2H); Aib20; D-Glu24; C-terminal NH2
B7: Example 237 (peptide)
peptide: B1 peptide with X10A, Y25X
modifications: Aib2; αMeF(2F)6; αMeL13; Orn16; K17((2-[2-(2-Amino-ethoxy)-ethoxy]-acetyl)2-(γ-Glu)-CO-(CH2)16-CO2H); Aib20; D-Glu24; αMeY25; C-terminal NH2
B8: Example 246 (peptide)
peptide: B1 peptide with X10A, E21A, Y25X
modifications: Aib2; αMeF(2F)6; αMeL13; Orn16; K17((2-[2-(2-Amino-ethoxy)-ethoxy]-acetyl)2-(γ-Glu)-CO-(CH2)16-CO2H); Aib20; D-Glu24; αMeY25; C-terminal NH2
B9: Example 229 (peptide)
peptide: YXEGTXTSDYSXLDEKAQXEFIXYLIEGGPSSGAPPPS
modifications: Aib2; αMeF(2F)6; αMeL12; K16((2-[2-(2-Amino-ethoxy)-ethoxy]-acetyl)2-(γ-Glu)-CO-(CH2)18-CO2H); Aib19; D-Glu23; C-terminal NH2 (positions counted on this 38-residue peptide)
B10: Example 253 (peptide)
peptide: YXEGTFTSDYSILLDKKAQAAFIEYLIEGGPSSGAPPPS
modifications: Aib2; K17((2-[2-(2-Amino-ethoxy)-ethoxy]-acetyl)2-(γ-Glu)-CO-(CH2)18-CO2H); C-terminal NH2
B11: Example 268 (peptide)
peptide: Y[Aib]EGTFTSDYSILLDEK([AEEA-AEEA-γGlu-C18 diacid])AQ[Aib]AFIEYLIEGGPSSG-NH2
modifications: N-terminus assumed
SMILES: CC[C@H](C)[C@H](NC(=O)[C@H](CC(C)C)NC(=O)[C@H](Cc1ccc(O)cc1)NC(=O)[C@H](CCC(=O)O)NC(=O)[C@@H](NC(=O)[C@H](Cc1ccccc1)NC(=O)[C@H](C)NC(=O)C(C)(C)NC(=O)[C@H](CCC(N)=O)NC(=O)[C@H](C)NC(=O)[C@H](CCCCNC(=O)COCCOCCNC(=O)COCCOCCNC(=O)CC[C@H](NC(=O)CCCCCCCCCCCCCCCCC(=O)O)C(=O)O)NC(=O)[C@H](CCC(=O)O)NC(=O)[C@H](CC(=O)O)NC(=O)[C@H](CC(C)C)NC(=O)[C@H](CC(C)C)NC(=O)[C@@H](NC(=O)[C@H](CO)NC(=O)[C@H](Cc1ccc(O)cc1)NC(=O)[C@H](CC(=O)O)NC(=O)[C@H](CO)NC(=O)[C@@H](NC(=O)[C@H](Cc1ccccc1)NC(=O)[C@@H](NC(=O)CNC(=O)[C@H](CCC(=O)O)NC(=O)C(C)(C)NC(=O)[C@@H](N)Cc1ccc(O)cc1)[C@@H](C)O)[C@@H](C)O)[C@@H](C)CC)[C@@H](C)CC)C(=O)N[C@@H](CCC(=O)O)C(=O)NCC(=O)NCC(=O)N1CCC[C@H]1C(=O)N[C@@H](CO)C(=O)N[C@@H](CO)C(=O)NCC(N)=O
B12: Example 298 (peptide)
peptide: Y[Aib]EGTFTSDYSILLDKK([AEEA-AEEA-γGlu-C18 diacid])AQ[Aib]AFVEYLIEGGPSSG-NH2
modifications: N-terminus assumed
SMILES: CC[C@H](C)[C@H](NC(=O)[C@H](CC(C)C)NC(=O)[C@H](Cc1ccc(O)cc1)NC(=O)[C@H](CCC(=O)O)NC(=O)[C@@H](NC(=O)[C@H](Cc1ccccc1)NC(=O)[C@H](C)NC(=O)C(C)(C)NC(=O)[C@H](CCC(N)=O)NC(=O)[C@H](C)NC(=O)[C@H](CCCCNC(=O)COCCOCCNC(=O)COCCOCCNC(=O)CC[C@H](NC(=O)CCCCCCCCCCCCCCCCC(=O)O)C(=O)O)NC(=O)[C@H](CCCCN)NC(=O)[C@H](CC(=O)O)NC(=O)[C@H](CC(C)C)NC(=O)[C@H](CC(C)C)NC(=O)[C@@H](NC(=O)[C@H](CO)NC(=O)[C@H](Cc1ccc(O)cc1)NC(=O)[C@H](CC(=O)O)NC(=O)[C@H](CO)NC(=O)[C@@H](NC(=O)[C@H](Cc1ccccc1)NC(=O)[C@@H](NC(=O)CNC(=O)[C@H](CCC(=O)O)NC(=O)C(C)(C)NC(=O)[C@@H](N)Cc1ccc(O)cc1)[C@@H](C)O)[C@@H](C)O)[C@@H](C)CC)C(C)C)C(=O)N[C@@H](CCC(=O)O)C(=O)NCC(=O)NCC(=O)N1CCC[C@H]1C(=O)N[C@@H](CO)C(=O)N[C@@H](CO)C(=O)NCC(N)=O
B13: Example 270 (peptide)
peptide: Y[Aib]EGTFTSDYSILLDKK([AEEA-AEEA-γGlu-C18 diacid])AQ[Aib]EFIEYLIEGGPSSG-NH2
modifications: N-terminus assumed
SMILES: CC[C@H](C)[C@H](NC(=O)[C@H](CC(C)C)NC(=O)[C@H](Cc1ccc(O)cc1)NC(=O)[C@H](CCC(=O)O)NC(=O)[C@@H](NC(=O)[C@H](Cc1ccccc1)NC(=O)[C@H](CCC(=O)O)NC(=O)C(C)(C)NC(=O)[C@H](CCC(N)=O)NC(=O)[C@H](C)NC(=O)[C@H](CCCCNC(=O)COCCOCCNC(=O)COCCOCCNC(=O)CC[C@H](NC(=O)CCCCCCCCCCCCCCCCC(=O)O)C(=O)O)NC(=O)[C@H](CCCCN)NC(=O)[C@H](CC(=O)O)NC(=O)[C@H](CC(C)C)NC(=O)[C@H](CC(C)C)NC(=O)[C@@H](NC(=O)[C@H](CO)NC(=O)[C@H](Cc1ccc(O)cc1)NC(=O)[C@H](CC(=O)O)NC(=O)[C@H](CO)NC(=O)[C@@H](NC(=O)[C@H](Cc1ccccc1)NC(=O)[C@@H](NC(=O)CNC(=O)[C@H](CCC(=O)O)NC(=O)C(C)(C)NC(=O)[C@@H](N)Cc1ccc(O)cc1)[C@@H](C)O)[C@@H](C)O)[C@@H](C)CC)[C@@H](C)CC)C(=O)N[C@@H](CCC(=O)O)C(=O)NCC(=O)NCC(=O)N1CCC[C@H]1C(=O)N[C@@H](CO)C(=O)N[C@@H](CO)C(=O)NCC(N)=O
B14: Example 247 (peptide)
peptide: B1 peptide with X10Y
modifications: Aib2; αMeF(2F)6; Aib13; Orn16; K17((2-[2-(2-Amino-ethoxy)-ethoxy]-acetyl)2-(γ-Glu)-CO-(CH2)16-CO2H); Aib20; D-Glu24; C-terminal NH2

The target of one assay is T1, human GIP receptor. Briefly: [125I]-GIP competition SPA, hGIPR membranes. As to the method:
The binding buffer contains 25 mM HEPES, pH 7.4, 2.5 mM CaCl₂, 1 mM MgCl₂, 0.1% (w/v) bacitracin, 0.003% (w/v) TWEEN®-20, and Roche Complete™ Protease Inhibitors without EDTA. […] Plates are sealed and mixed on a plate shaker (setting 6) for 1 minute and read with a PerkinElmer Trilux MicroBeta® scintillation counter after 2.5 to 12 hours of incubation/settling time at room temperature.
(§1) Data are analyzed using four-parameter (curve maximum, curve minimum, IC₅₀, Hill slope) nonlinear regression routines (Genedata Screener, version 12.0.4, Genedata AG, Basal, Switzerland). […] Values for Kᵢ are reported as the geometric mean, with error expressed as the standard error of the mean (SEM) and n is equal to the number of independent replicates (determined in assays performed on different days). Geometric Means are calculated as follows: […]
The term Ki denotes the dissociation constant of the complex between target and ligand, obtained from inhibition or displacement. A low value points to tighter binding. Consider B1, for which the Ki stood at 0.0544 nM.
Same read-out and setting: in the case of B2 it was 0.0581 nM.
On the same count and under the same terms, in the case of B3 it was 0.0394 nM; in that of B4, 0.0445 nM; in that of B5, 0.0397 nM.
On the same count and under the same terms, to B6 belongs 0.0563 nM; to B7, 0.131 nM; to B8, 0.0509 nM.
With B9, the affinity, expressed as Ki, was 2.47 nM.
On to B10, for which the Ki was determined as 0.138 nM.
On the same count and under the same terms, to B11 belongs 0.0814 nM; to B12, 0.0578 nM; to B13, 0.117 nM.

The next assay addresses T2, human GLP-1 receptor (human, UniProt P43220 24-463).
T2 construct: whole, on cells; also called hGLP-1R; hGLP1R
Briefly: [125I]-GLP-1 competition SPA, hGLP-1R membranes. Here is the method: The binding buffer contains 25 mM HEPES, pH 7.4, 2.5 mM CaCl₂, 1 mM MgCl₂, 0.1% (w/v) bacitracin, 0.003% (w/v) TWEEN®-20, and Roche Complete™ Protease Inhibitors without EDTA.
as §1
In turn, B1 gave a Ki of 5.62 nM.
The molecule B2 yielded a Ki of 7.65 nM.
For the molecule B3, the Ki was determined as 2.35 nM.
Still for that read-out and setting: in the case of B4 it was 5.99 nM; in that of B5, 2.4 nM; in that of B14, 4.39 nM.
The same measure, in the same setting: to B6 belongs 10.9 nM; to B7, 1.04 nM.
The same measure, in the same setting: to B8 belongs 0.812 nM; to B9, 36.2 nM; to B10, 2.57 nM.
Molecule B11 came in with a Ki of 3.98 nM.
The same measure, in the same setting: to B12 belongs 3.03 nM; to B13, 8.27 nM.
